B1: anti-HER3 human antibody U1-59 (antibody, human IgG1, kappa, V domains shown)
VH: QVQLQQWGAGLLKPSETLSLTCAVYGGSFSGYYWSWIRQPPGKGLEWIGEINHSGSTNYNPSLKSRVTISVETSKNQFSLKLSSVTAADTAVYYCARDKWTWYFDLWGRGTLVTVSS
VL: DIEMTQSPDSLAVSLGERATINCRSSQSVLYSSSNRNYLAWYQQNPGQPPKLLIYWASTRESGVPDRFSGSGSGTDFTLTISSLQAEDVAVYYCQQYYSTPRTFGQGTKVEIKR
notes: also called non-conjugated anti-HER3 antibody U1-59
B2: Antibody-drug conjugate (3) (antibody, human IgG1, kappa, V domains shown)
VH: QVQLQQWGAGLLKPSETLSLTCAVYGGSFSGYYWSWIRQPPGKGLEWIGEINHSGSTNYNPSLKSRVTISVETSKNQFSLKLSSVTAADTAVYYCARDKWTWYFDLWGRGTLVTVSS
VL: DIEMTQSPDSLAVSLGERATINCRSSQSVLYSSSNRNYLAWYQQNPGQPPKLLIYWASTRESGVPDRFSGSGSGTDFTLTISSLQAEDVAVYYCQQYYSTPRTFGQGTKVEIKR
modifications: may carry the same drug-linker on a cysteine (L chain bound to one drug molecule); position not stated; exatecan drug-linker -(Succinimid-3-yl-N)-CH2CH2CH2CH2CH2-C(=O)-GGFG-NH-CH2CH2CH2-C(=O)-(NH-DX), joined by thioether bonds to cysteines freed by reducing the hinge disulfide bonds; average 4.9 drug molecules per antibody (UV method); positions not given
notes: also called ADC (3)
B3: Antibody-drug conjugate (13) (antibody, human IgG1, kappa, V domains shown)
VH: QVQLQQWGAGLLKPSETLSLTCAVYGGSFSGYYWSWIRQPPGKGLEWIGEINHSGSTNYNPSLKSRVTISVETSKNQFSLKLSSVTAADTAVYYCARDKWTWYFDLWGRGTLVTVSS
VL: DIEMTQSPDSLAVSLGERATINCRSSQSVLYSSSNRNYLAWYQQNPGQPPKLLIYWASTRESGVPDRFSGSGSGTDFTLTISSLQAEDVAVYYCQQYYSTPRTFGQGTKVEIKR
modifications: may carry the same drug-linker on a cysteine (L chain bound to one drug molecule); position not stated; exatecan drug-linker -(Succinimid-3-yl-N)-CH2CH2CH2CH2CH2-C(=O)-GGFG-NH-CH2-O-CH2-C(=O)-(NH-DX), joined by thioether bonds to cysteines freed by reducing the hinge disulfide bonds; average 6.2 (procedure E) or 7.0 (procedure F) drug molecules per antibody; positions not given
notes: also called ADC (13)

For the test, the target named is T1, human epidermal growth factor receptor 3 (HER3) (human, UniProt P21860 20-1342).
T1 construct: whole, on cells; The target is the endogenous HER3 of the cell lines used; also called ErbB3; HER3 protein
Briefly: flow cytometry on HCC1569 cells, PE-labelled anti-human secondary antibody, one-site specific binding fit. The protocol:
A human breast cancer cell line HCC1569 (CRL-2330) from ATCC was cultured in an RPMI1640 medium (purchased from Invitrogen Corp., containing 10% […] (manufactured by Invitrogen Corp.) and 2 mM L-glutamine (manufactured by Invitrogen Corp.)). The cells were dissociated from the culture plate using ACCUTASE® SOLUTION (Millipore Corp., SCR005) or EDTA (5 mM, phosphate buffered saline (PBS, 137 mM sodium chloride, 2.7 mM potassium chloride, 1.47 mM potassium dihydrogen phosphate, and 10.5 mM disodium hydrogen phosphate)), and the number of living cells was measured by trypan blue treatment.
The cells of each group were reacted with a primary antibody dilution for 45 minutes on ice and then washed with a FACS buffer. Further, 100 uL of a FACS buffer or a reaction solution of a secondary antibody diluted 1/100 (phycoerythrin (PE)-coupled anti human antibody, Dianova GmbH #709-116-149) was added thereto. The cells were treated for 45 minutes on ice in the dark and then washed with a FACS buffer, and dead cells were excluded using a FACS buffer or a FACS buffer supplemented with 7-aminoactinomycin D (7AAD, Sigma-Aldrich Co. LLC, #A9400, 1.1 ug/mL).
The equilibrium binding affinity KD and the maximum binding strength Bmax were calculated using GraphPad Prism software.
A general note: Flow cytometry measures light scatter and fluorescence of single cells or particles in a stream.
Broadly, the Kd is a measure of binding affinity in units of concentration. B1 displayed a Bmax of 31800 and an equilibrium dissociation constant (Kd) of 1.67 nM.
Consider B2, for which the Bmax was found to be 28900 and the affinity, expressed as Kd, was 1.65 nM.
For B3 the same measures were 28400 and 2.76 nM.

Values taken from US20220172420A1 (Daiichi Sankyo, published 2022).
